Here are results for ten molecules from PMC3103431, “The four Zn fingers of MBNL1 provide a flexible platform for recognition of its RNA binding elements”.

For data set [1], the target named is T1, MBNL1 (2-260) (Homo sapiens, UniProt Q9NR56 2-260).
T1 sequence: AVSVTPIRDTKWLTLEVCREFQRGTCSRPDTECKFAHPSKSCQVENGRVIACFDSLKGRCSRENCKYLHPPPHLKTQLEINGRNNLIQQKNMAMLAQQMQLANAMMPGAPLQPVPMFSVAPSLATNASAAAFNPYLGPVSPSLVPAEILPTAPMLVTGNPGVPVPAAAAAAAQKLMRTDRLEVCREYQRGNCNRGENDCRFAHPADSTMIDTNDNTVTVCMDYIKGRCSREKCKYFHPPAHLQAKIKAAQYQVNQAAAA
In words: EMSA; 5 mM Mg2+; 100 mM NaCl, 21 mM Tris pH 7.5, 5 mM MgCl2, 0.1 mM EDTA, 2 mg/mL BSA, 0.1 mg/mL heparin, 0.5 mM BME, 5 mM DTT, 0.02% Triton X-100, 10% glycerol, 0.02 nM RNA, room temperature 30 min. Particulars: protein: recombinant; tags: GST tag removed; label: 5' 32P; single-stranded. On the technique in general: In EMSA bound probe runs differently from free probe, usually more slowly.

The target of data set [2] is T1, MBNL1 (2-260). In words: EMSA; 5 mM Mg2+; smearing; 100 mM NaCl, 21 mM Tris pH 7.5, 5 mM MgCl2, 0.1 mM EDTA, 2 mg/mL BSA, 0.1 mg/mL heparin, 0.5 mM BME, 5 mM DTT, 0.02% Triton X-100, 10% glycerol, 0.02 nM RNA, room temperature 30 min. Particulars: protein: recombinant; tags: GST tag removed; label: 5' 32P; single-stranded.
The target of data set [3] is T1, MBNL1 (2-260). Nature of the data set: competition; vs 32P-2GC 0.02 nM, 33.3 nM MBNL1; 100 mM NaCl, 21 mM Tris pH 7.5, 5 mM MgCl2, 0.1 mM EDTA, 2 mg/mL BSA, 0.1 mg/mL heparin, 0.5 mM BME, 5 mM DTT, 0.02% Triton X-100, 10% glycerol, 0.02 nM RNA, room temperature 30 min. Particulars: protein: recombinant; tags: GST tag removed; label: 5' 32P; single-stranded.
For data set [4], the target named is T1, MBNL1 (2-260). In words: EMSA; 5 mM Mg2+; range for 2, 3 and 4 GC RNAs; 100 mM NaCl, 21 mM Tris pH 7.5, 5 mM MgCl2, 0.1 mM EDTA, 2 mg/mL BSA, 0.1 mg/mL heparin, 0.5 mM BME, 5 mM DTT, 0.02% Triton X-100, 10% glycerol, 0.02 nM RNA, room temperature 30 min. Particulars: protein: recombinant; tags: GST tag removed; label: 5' 32P; single-stranded.
For data set [5], the target named is T1, MBNL1 (2-260). In words: EMSA; 5 mM Mg2+; wild type level; 100 mM NaCl, 21 mM Tris pH 7.5, 5 mM MgCl2, 0.1 mM EDTA, 2 mg/mL BSA, 0.1 mg/mL heparin, 0.5 mM BME, 5 mM DTT, 0.02% Triton X-100, 10% glycerol, 0.02 nM RNA, room temperature 30 min. Particulars: protein: recombinant; tags: GST tag removed; label: 5' 32P; single-stranded.
The target in data set [6] is T1, MBNL1 (2-260). In words: EMSA; 5 mM Mg2+; 100 mM NaCl, 21 mM Tris pH 7.5, 5 mM MgCl2, 0.1 mM EDTA, 2 mg/mL BSA, 0.1 mg/mL heparin, 0.5 mM BME, 5 mM DTT, 0.02% Triton X-100, 10% glycerol, 0.02 nM RNA, room temperature 30 min. To be noted: protein: recombinant; tags: GST tag removed; label: 5' 32P; single-stranded. The source holds these as a separate data set.
The target of data set [7] is T1, MBNL1 (2-260). The description is as above. To be noted: protein: recombinant, tags: GST tag removed, label: 5' 32P.
In data set [8] the target is T1, MBNL1 (2-260). Nature of the data set: EMSA; 5 mM Mg2+; smearing; 100 mM NaCl, 21 mM Tris pH 7.5, 5 mM MgCl2, 0.1 mM EDTA, 2 mg/mL BSA, 0.1 mg/mL heparin, 0.5 mM BME, 5 mM DTT, 0.02% Triton X-100, 10% glycerol, 0.02 nM RNA, room temperature 30 min. To be noted: protein: recombinant; tags: GST tag removed; label: 5' 32P; single-stranded. This is another data set of the same source.

For CCCGCCCCCCCCCCCCCCGCCCC (ssRNA) [C], the Kd (usually the free concentration of one partner at which half of the binding sites on the other are occupied at equilibrium, for simple one-to-one binding) with MBNL1 (2-260) [1] amounted to 111 nM. UUUGCUUUUUUUUUUUUUUUUUU (ssRNA) [1GC]: in the data set with MBNL1 (2-260) [2], the Kd was 45 nM. Besides, the binding signal with MBNL1 (2-260) [3] came to 15 fold weaker than 2GC. As to UGCUUUUUUUUUGCUGCUUUUUUUUUGCU (ssRNA) [4GC], the Kd in the data set with MBNL1 (2-260) [4] turned out to be 3.16 nM. Consider CCUGCUCCCCCCCCCCCUGCUCC (ssRNA) [C4], for which the binding result with MBNL1 (2-260) [5] was “binds”. In the case of UUUGCUUUUUUUUUUUUUGCUUU (ssRNA) [2GC], the Kd with MBNL1 (2-260) [1] came out at 11 nM. With AAUGCUAAAAAAAAAAAUGCUAA (ssRNA) [A4], the binding signal with MBNL1 (2-260) [6] is more than 10 fold weaker than 2GC. For the molecule UUGGCGUUUUUUUUUUUGGCGUU (ssRNA) [GGCG], in the data set with MBNL1 (2-260) [7], the binding signal came out at 40 fold weaker than 2GC. Turning to UCCUUUUUUUUUCCUGCUUUUUUUUUCCU (ssRNA) [1GC#2], the binding signal with MBNL1 (2-260) [8] is ~5 fold higher Kd than the 2-4 GC 29-nt RNAs. For UUCGCCUUUUUUUUUUUCGCCUU (ssRNA) [CGCC], the Kd with MBNL1 (2-260) [1] was found to be 7 nM. For UUAGCAUUUUUUUUUUUAGCAUU (ssRNA) [AGCA], the binding signal with MBNL1 (2-260) [7] (single-stranded) turned out to be 5 fold weaker than 2GC.
